From PMC8539926
One block for each substance: values may come before it.

What was measured:
CXCR4 [1] = target: CXCR4 (UniProt P61073)
CXCR4 [2] = target: CXCR4 (UniProt P61073); remark: listed apart in the source
CXCR4 [3] = target: CXCR4 (UniProt P61073); remark: listed apart in the source

Chain of UniProt P61073 (P61073 whole entry): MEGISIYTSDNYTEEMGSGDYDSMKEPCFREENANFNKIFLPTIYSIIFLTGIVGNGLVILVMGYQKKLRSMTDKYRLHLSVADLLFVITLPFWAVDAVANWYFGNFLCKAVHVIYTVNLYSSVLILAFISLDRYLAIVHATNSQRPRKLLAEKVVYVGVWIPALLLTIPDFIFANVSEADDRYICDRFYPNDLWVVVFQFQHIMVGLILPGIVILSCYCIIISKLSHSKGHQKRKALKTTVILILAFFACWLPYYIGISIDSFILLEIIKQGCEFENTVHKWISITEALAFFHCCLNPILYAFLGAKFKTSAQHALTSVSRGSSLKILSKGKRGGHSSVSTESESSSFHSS

fold decrease in Jurkat cell migration (endogenous CXCR4) compared with CXCL12 wt, Transwell assay (CXCR4 [1]): 11 fold
Substance: [S4V]-[V49A]-CXCL12 (from UniProt P48061-2 22-89) (ligand)

concentration of the migration maximum, Transwell migration of Jurkat cells (endogenous CXCR4), 2 h, dilution series (CXCR4 [2]): 700 nM
Substance: [S4V]-[V49A]-CXCL12-MMPCS-SBP (from UniProt P48061-2 22-89) (ligand)

fold regain of migration potential against compound 4, Jurkat cells (endogenous CXCR4), Transwell assay (CXCR4 [1]): 2 fold
Substance: [S4V]-[V49A]-CXCL12-GPLS (from UniProt P48061-2 22-89) (ligand)

concentration of the best response, Transwell migration of Jurkat cells (endogenous CXCR4), 2 h, dilution series (CXCR4 [2]): 30 nM
Emax of IP accumulation, COS-7 cells with CXCR4-eYFP and chimeric Gαqi protein, normalized to CXCL12 wt (CXCR4 [3]): 100%
Substance: CXCL12 wild type (from UniProt P48061-2 22-89) (ligand)
